In article doi:10.1101/501098 (bioRxiv, 2018):

Target: Histone H4 (Xenopus laevis), in the nucleosome (Xenopus laevis, UniProt P62799 2-103)
Assay: cryo-EM structure

binding result: binds
B1: Dot1L(2-416) (domain or fragment)
chain: GEKLELRLKSPVGAEPAVYPWPLPVYDKHHDAAHEIIETIRWVCEEIPDLKLAMENYVLIDYDTKSFESMQRLCDKYNRAIDSIHQLWKGTTQPMKLNTRPSTGLLRHILQQVYNHSVTDPEKLNNYEPFSPEVYGETSFDLVAQMIDEIKMTDDDLFVDLGSGVGQVVLQVAAATNCKHHYGVEKADIPAKYAETMDREFRKWMKWYGKKHAEYTLERGDFLSEEWRERIANTSVIFVNNFAFGPEVDHQLKERFANMKEGGRIVSSKPFAPLNFRINSRNLSDIGTIMRVVELSPLKGSVSWTGKPVSYYLHTIDRTILENYFSSLKNPKLREEQEAARRRQQRESKSNAATPTKGPEGKVAGPADAPMDSGAEEEKAGAATVKKPSPSKARKKKLNKKGRKMAGRKRGRPKK
